Blank lines part the entries; values can stand above or below the binder they belong to.
How the values were obtained:
[1] = target: T1, rHuman ErbB2/Fc Chimera, CF (R&D Systems Cat#1129-ER) (human, UniProt P04626 23-652); experiment: ECL multispot (MSD) assay, antigen spotted on plate, 10 nM Fab;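 further: bound Fab detected with a TAG-labelled detection antibody (1 h, 20 °C), electrochemiluminescence read and compared with each well's blank, signal/blank of 4 or above scored as hit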
T1 construct: Bought recombinant Fc chimera; also called human epidermal growth factor 2 receptor; Fc part of the bought chimera not given

[2] = target: T2, rHuman EGF R/Fc Chimera, CF (R&D Systems Cat#344-ER) (human, UniProt P00533 25-645); experiment: as above
T2 construct: Bought recombinant Fc chimera; also called epidermal growth factor receptor; Fc part of the bought chimera not given

[3] = target: T3, rHuman HGF R/c-MET/Fc Chimera, CF (R&D Systems Cat#358-MT/CF) (human, UniProt P08581 25-932); experiment: as above
T3 construct: Bought recombinant Fc chimera; also called HGF R/Fc; hepatocyte growth factor receptor; Fc part of the bought chimera not given
T3 sequence (P08581 25-932, change not shown): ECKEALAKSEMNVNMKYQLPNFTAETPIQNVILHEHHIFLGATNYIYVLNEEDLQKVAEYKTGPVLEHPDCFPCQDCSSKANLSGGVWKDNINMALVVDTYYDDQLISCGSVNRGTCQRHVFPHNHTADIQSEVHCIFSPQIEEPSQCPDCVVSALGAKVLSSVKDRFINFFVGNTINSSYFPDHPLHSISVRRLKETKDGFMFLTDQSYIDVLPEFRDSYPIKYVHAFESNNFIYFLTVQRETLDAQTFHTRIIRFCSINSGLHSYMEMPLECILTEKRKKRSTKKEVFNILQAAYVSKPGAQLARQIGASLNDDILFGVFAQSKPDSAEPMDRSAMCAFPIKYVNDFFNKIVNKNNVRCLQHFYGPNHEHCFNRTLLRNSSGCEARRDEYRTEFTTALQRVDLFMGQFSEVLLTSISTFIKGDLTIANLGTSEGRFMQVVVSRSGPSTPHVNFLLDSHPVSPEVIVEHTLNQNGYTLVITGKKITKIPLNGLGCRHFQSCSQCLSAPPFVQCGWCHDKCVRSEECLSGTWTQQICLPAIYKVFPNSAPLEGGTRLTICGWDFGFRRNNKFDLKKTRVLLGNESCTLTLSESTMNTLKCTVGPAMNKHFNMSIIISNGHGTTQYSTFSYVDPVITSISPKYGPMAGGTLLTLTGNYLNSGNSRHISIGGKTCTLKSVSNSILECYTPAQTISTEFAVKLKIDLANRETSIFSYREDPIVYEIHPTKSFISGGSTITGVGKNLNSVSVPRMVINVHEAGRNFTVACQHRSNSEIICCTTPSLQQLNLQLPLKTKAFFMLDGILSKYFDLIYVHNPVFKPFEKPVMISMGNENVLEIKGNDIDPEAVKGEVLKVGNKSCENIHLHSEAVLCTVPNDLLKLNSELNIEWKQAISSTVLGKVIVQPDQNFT

[4] = target: T4, rHuman IGF-1 sR, CF (R&D Systems Cat#391-GR) (human, UniProt P08069 31-932); experiment: as above
T4 construct: Bought soluble receptor; also called insulin-like growth factor-1 soluble receptor

[5] = target: T5, rHuman P-Cadherin/Fc Chimera, CF (R&D Systems Cat#861-PC) (human, UniProt P22223 108-654); experiment: as above
T5 construct: Bought recombinant Fc chimera; Fc part of the bought chimera not given

[6] = target: T6, Recombinant Human DLL4 (R&D Systems Cat#1506-D4/CF) (human, UniProt Q9NR61 27-524); experiment: as above
T6 construct: Bought recombinant protein; also called delta-like protein 4; rHuman DLL4

[7] = target: T7, rHuman ErbB2/Fc Chimera, CF (human, UniProt P04626 23-652); experiment: ECL Multispot (MSD) assay; antigen spotted on plate, Fab in solution;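 further: fab bound 1 h at 20 °C, detected by TAG-labelled antibody electrochemiluminescence, signal relative to each well's blank, ratio of 4 or more marks a hit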
T7 construct: Bought from R&D Systems; also called human epidermal growth factor 2 receptor; not shown: Fc of the bought chimera

[8] = target: T8, rHuman EGF R/Fc Chimera, CF (human, UniProt P00533 25-645); experiment: as above
T8 construct: Bought from R&D Systems; also called epidermal growth factor receptor; not shown: Fc of the bought chimera

[9] = target: T9, rHuman HGF R/c-MET/Fc Chimera, CF (human, UniProt P08581 25-932); experiment: as above
T9 construct: Bought from R&D Systems; also called HGF R/Fc; hepatocyte growth factor receptor; not shown: Fc of the bought chimera
T9 sequence (P08581 25-932, change not shown): as above

[10] = target: T10, rHuman Notch-1/Fc Chimera, CF (human, UniProt P46531 19-526); experiment: as above
T10 construct: Bought from R&D Systems; not shown: Fc of the bought chimera

[11] = target: T11, rHuman CD44/Fc Chimera, CF (human, UniProt P16070 21-220); experiment: as above
T11 construct: Bought from R&D Systems; not shown: Fc of the bought chimera

[12] = target: T12, rHuman IGF-1 sR, (IGF-1 sR), CF (human, UniProt P08069 31-932); experiment: as above
T12 construct: Bought from R&D Systems; also called insulin-like growth factor-1 soluble receptor

[13] = target: T13, rHuman Erythropoietin R/Fc Chimera, CF (human, UniProt P19235 25-250); experiment: as above
T13 construct: Bought from R&D Systems; also called EPO R; EPO R/Fc; not shown: Fc of the bought chimera
T13 sequence (looked up): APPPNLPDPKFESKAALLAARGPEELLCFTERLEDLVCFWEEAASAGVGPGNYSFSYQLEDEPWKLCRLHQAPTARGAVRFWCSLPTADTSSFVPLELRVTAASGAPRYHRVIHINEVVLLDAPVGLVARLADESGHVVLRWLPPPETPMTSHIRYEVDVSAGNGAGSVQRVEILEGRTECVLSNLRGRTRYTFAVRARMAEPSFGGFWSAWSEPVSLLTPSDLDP

Recombinant Human DLL4 = target: T14, Recombinant Human DLL4 (human, UniProt Q9NR61 27-524); experiment: as above
T14 construct: Bought from R&D Systems; also called delta-like protein 4; rHuman DLL4

[14] = target: T15, Recombinant Human DLL4 (R&D Systems Cat#1506-D4/CF) (human, UniProt Q9NR61 27-524); experiment: ECL (MSD) multispot binding assay, DLL4 immobilised, Fab in solution
T15 construct: Bought protein (R&D Systems Cat#1506-D4/CF), immobilised on the MSD plate; also called delta-like protein 4; rHuman DLL4

ECL signal [1]: 354
ECL signal [2]: 383
ECL signal [3]: 347
ECL signal [4]: 397
ECL signal [5]: 347
ECL signal [6]: 78400
B1: Fab VH1-46_IGHD6-6*01_IGHJ1*01 S102A/S103P/S104F/H111F & L6_IGKJ1*01 (Fab, V domains shown)
VH: QVQLVQSGAEVKKPGASVKVSCKASGYTFTSYYMHWVRQAPGQGLEWMGIINPSGGSTSYAQKFQGRVTMTRDTSTSTVYMELSSLRSEDTAVYYCAREEYAPFSAEYFQFWGQGTLVTVSS
VL: not shown
notes: Fab expressed in E. coli: VH cloned into Plasmid A (CH1, His6 and Flag tags), kappa VL into Plasmid C (kappa CL); also called APFF; H:APFF & L:wt

ECL signal [7]: 271
ECL signal [8]: 321
ECL signal [9]: 371
ECL signal [10]: 249
ECL signal [11]: 368
ECL signal [12]: 355
ECL signal [13]: 380
ECL signal (Recombinant Human DLL4): 159000
B2: Fab VH1-46_IGHD6-6*01_IGHJ1*01 S102A/S103P/S104F/H111F (APFF) & L6_IGKJ1*01 S28T (Fab, V domains shown)
VH: QVQLVQSGAEVKKPGASVKVSCKASGYTFTSYYMHWVRQAPGQGLEWMGIINPSGGSTSYAQKFQGRVTMTRDTSTSTVYMELSSLRSEDTAVYYCAREEYAPFSAEYFQFWGQGTLVTVSS
VL: EIVLTQSPATLSLSPGERATLSCRASQTVSSYLAWYQQKPGQAPRLLIYDASNRATGIPARFSGSGSGTDFTLTISSLEPEDFAVYYCQQRSNWPPWTFGQGTKVEIKR
notes: Fab made in E. coli; the variable domains were cloned into Plasmid A (CH1, His and Flag tags) and Plasmid C (kappa CL); also called APFF / S28T

ECL signal [14]: 817
Signal/Blank [14]: 3.1
B3: Fab VH1-46_IGHD6-6*01_IGHJ1*01 S102A/S103P/S104F (APF) & L6_IGKJ1*01 R91Q (Fab, V domains shown)
VH: QVQLVQSGAEVKKPGASVKVSCKASGYTFTSYYMHWVRQAPGQGLEWMGIINPSGGSTSYAQKFQGRVTMTRDTSTSTVYMELSSLRSEDTAVYYCAREEYAPFSAEYFQHWGQGTLVTVSS
VL: EIVLTQSPATLSLSPGERATLSCRASQSVSSYLAWYQQKPGQAPRLLIYDASNRATGIPARFSGSGSGTDFTLTISSLEPEDFAVYYCQQQSNWPPWTFGQGTKVEIKR
notes: Fab with CH1 plus His6/Flag tags and kappa CL from the expression plasmids; also called APF & R91Q

ECL signal [14]: 2090
B4: Fab VH1-46_IGHD6-6*01_IGHJ1*01 S102A/S103P/S104F (APF) & L6_IGKJ1*01 S92N (Fab, V domains shown)
VH: QVQLVQSGAEVKKPGASVKVSCKASGYTFTSYYMHWVRQAPGQGLEWMGIINPSGGSTSYAQKFQGRVTMTRDTSTSTVYMELSSLRSEDTAVYYCAREEYAPFSAEYFQHWGQGTLVTVSS
VL: EIVLTQSPATLSLSPGERATLSCRASQSVSSYLAWYQQKPGQAPRLLIYDASNRATGIPARFSGSGSGTDFTLTISSLEPEDFAVYYCQQRNNWPPWTFGQGTKVEIKR
notes: Fab with CH1 plus His6/Flag tags and kappa CL from the expression plasmids; also called APF & S92N

ECL signal [14]: 6440
B5: Fab VH1-46_IGHD6-6*01_IGHJ1*01 S102A/S103P/S104F/H111F (APFF) & L6_IGKJ1*01 N93S (Fab, V domains shown)
VH: QVQLVQSGAEVKKPGASVKVSCKASGYTFTSYYMHWVRQAPGQGLEWMGIINPSGGSTSYAQKFQGRVTMTRDTSTSTVYMELSSLRSEDTAVYYCAREEYAPFSAEYFQFWGQGTLVTVSS
VL: EIVLTQSPATLSLSPGERATLSCRASQSVSSYLAWYQQKPGQAPRLLIYDASNRATGIPARFSGSGSGTDFTLTISSLEPEDFAVYYCQQRSSWPPWTFGQGTKVEIKR
notes: Fab with CH1 plus His6/Flag tags and kappa CL from the expression plasmids; also called APFF & N93S

ECL signal [14]: 1280
Signal/Blank [14]: 4.7
B6: Fab VH1-46_IGHD6-6*01_IGHJ1*01 S102A/S103P/S104F (APF) & L6_IGKJ1*01 R91P (Fab, V domains shown)
VH: QVQLVQSGAEVKKPGASVKVSCKASGYTFTSYYMHWVRQAPGQGLEWMGIINPSGGSTSYAQKFQGRVTMTRDTSTSTVYMELSSLRSEDTAVYYCAREEYAPFSAEYFQHWGQGTLVTVSS
VL: EIVLTQSPATLSLSPGERATLSCRASQSVSSYLAWYQQKPGQAPRLLIYDASNRATGIPARFSGSGSGTDFTLTISSLEPEDFAVYYCQQPSNWPPWTFGQGTKVEIKR
notes: Fab with CH1 plus His6/Flag tags and kappa CL from the expression plasmids; also called APF & R91P

ECL signal [14]: 1380
B7: Fab VH1-46_IGHD6-6*01_IGHJ1*01 S102A/S103P/S104F/H111F (APFF) & L6_IGKJ1*01 N93Y (Fab, V domains shown)
VH: QVQLVQSGAEVKKPGASVKVSCKASGYTFTSYYMHWVRQAPGQGLEWMGIINPSGGSTSYAQKFQGRVTMTRDTSTSTVYMELSSLRSEDTAVYYCAREEYAPFSAEYFQFWGQGTLVTVSS
VL: EIVLTQSPATLSLSPGERATLSCRASQSVSSYLAWYQQKPGQAPRLLIYDASNRATGIPARFSGSGSGTDFTLTISSLEPEDFAVYYCQQRSYWPPWTFGQGTKVEIKR
notes: Fab with CH1 plus His6/Flag tags and kappa CL from the expression plasmids; also called APFF & N93Y

ECL signal [14]: 14700
B8: Fab VH1-46_IGHD6-6*01_IGHJ1*01 S102A/S103P/S104F/H111F (APFF) & L6_IGKJ1*01 N93H (Fab, V domains shown)
VH: QVQLVQSGAEVKKPGASVKVSCKASGYTFTSYYMHWVRQAPGQGLEWMGIINPSGGSTSYAQKFQGRVTMTRDTSTSTVYMELSSLRSEDTAVYYCAREEYAPFSAEYFQFWGQGTLVTVSS
VL: EIVLTQSPATLSLSPGERATLSCRASQSVSSYLAWYQQKPGQAPRLLIYDASNRATGIPARFSGSGSGTDFTLTISSLEPEDFAVYYCQQRSHWPPWTFGQGTKVEIKR
notes: Fab with CH1 plus His6/Flag tags and kappa CL from the expression plasmids; also called APFF & N93H

ECL signal [14]: 704
B9: Fab VH1-46_IGHD6-6*01_IGHJ1*01 S102A/S103P/S104F/H111F (APFF) & L6_IGKJ1*01 N93Q (Fab, V domains shown)
VH: QVQLVQSGAEVKKPGASVKVSCKASGYTFTSYYMHWVRQAPGQGLEWMGIINPSGGSTSYAQKFQGRVTMTRDTSTSTVYMELSSLRSEDTAVYYCAREEYAPFSAEYFQFWGQGTLVTVSS
VL: EIVLTQSPATLSLSPGERATLSCRASQSVSSYLAWYQQKPGQAPRLLIYDASNRATGIPARFSGSGSGTDFTLTISSLEPEDFAVYYCQQRSQWPPWTFGQGTKVEIKR
notes: Fab with CH1 plus His6/Flag tags and kappa CL from the expression plasmids; also called APFF & N93Q

ECL signal [7]: 345
ECL signal [8]: 517
ECL signal [9]: 380
ECL signal [10]: 331
ECL signal [11]: 420
ECL signal [12]: 404
ECL signal [13]: 437
ECL signal (Recombinant Human DLL4): 133000
B10: Fab VH1-46_IGHD6-6*01_IGHJ1*01 S102A/S103P/S104F/H111F (APFF) & L6_IGKJ1*01 S28Q (Fab, V domains shown)
VH: QVQLVQSGAEVKKPGASVKVSCKASGYTFTSYYMHWVRQAPGQGLEWMGIINPSGGSTSYAQKFQGRVTMTRDTSTSTVYMELSSLRSEDTAVYYCAREEYAPFSAEYFQFWGQGTLVTVSS
VL: EIVLTQSPATLSLSPGERATLSCRASQQVSSYLAWYQQKPGQAPRLLIYDASNRATGIPARFSGSGSGTDFTLTISSLEPEDFAVYYCQQRSNWPPWTFGQGTKVEIKR
notes: Fab made in E. coli; the variable domains were cloned into Plasmid A (CH1, His and Flag tags) and Plasmid C (kappa CL); also called APFF / S28Q
